The results in this text go back to patent publication US20160017348A1.

This test addresses unmodified H3 peptide (UniProt P59226). Put plainly: ITC; FIG. 3A. On the technique in general: Isothermal titration calorimetry measures the heat released or taken up as one component is titrated into another.

Chain of SHH1 SAWADEE domain (residues 125-258) (Q9XI47 125-258): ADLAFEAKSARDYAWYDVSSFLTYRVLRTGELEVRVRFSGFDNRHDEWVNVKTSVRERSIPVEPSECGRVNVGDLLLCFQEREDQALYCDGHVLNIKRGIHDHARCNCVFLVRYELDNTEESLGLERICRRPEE

As for “SHH1 SAWADEE domain (residues 125-258) (from UniProt Q9XI47 125-258)”, the Kd (as a rule, the constant that tells how readily two partners part at equilibrium) turned out to be 34.8 µM.
